Results as given in article PMC10487585, “Refolding Increases the Chaperone-like Activity of αH-Crystallin and Reduces Its Hydrodynamic Diameter to That of α-Crystallin” (International Journal of Molecular Sciences, 2023).

Tests used:
[1] = target: UV-damaged βL-crystallin (bovine (endogenous in steer lens))
[2] = target: the molecule itself; test: dynamic light scattering; ZetaSizer S nano; protein 1 mg/mL in PBS (40 mM sodium phosphate, pH 7.0, 100 mM NaCl, 1 mM EDTA, 3 mM NaN3); native protein without urea, or after renaturation from urea
αB-crystallin = target: T1, αB-crystallin (bovine (endogenous in steer lens), UniProt P02510 1-175); test: SEC; Sephacryl S300HR, 2.5 × 90 cm, 1.6 mL/min, calibrated with standard proteins; polypeptides of the preparations and fractions by SDS-PAGE; conditions: both partners purified
T1 construct: αB-crystallin (19.8 kDa), identified by mass on SDS-PAGE; source: purified from lenses of 6-month-old steers as a part of α-crystallin and HMWA
T1 sequence (looked up): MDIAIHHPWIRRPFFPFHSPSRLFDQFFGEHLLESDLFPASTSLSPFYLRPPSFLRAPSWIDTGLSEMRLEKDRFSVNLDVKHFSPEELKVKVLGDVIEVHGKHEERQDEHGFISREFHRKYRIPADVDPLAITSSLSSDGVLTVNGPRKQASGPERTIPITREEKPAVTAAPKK

With “refolded HMWA (from UniProt P02470 1-173; P02510 1-175) (complex)” the abscissa point of intersection (reciprocal of AC0) of the relative aggregation rate of UV-damaged βL-crystallin against the chaperone/target protein ratio; points with accelerated aggregation left out (mol/mol (chaperone/target protein)) [1] was 0.38.

“αH-crystallin, high molecular weight aggregate (native) (from UniProt P02470 1-173; P02510 1-175) (complex)” gave an abscissa point of intersection (reciprocal of AC0) of the relative aggregation rate of UV-damaged βL-crystallin against the chaperone/target protein ratio (mol/mol (chaperone/target protein)) [1] of 0.46 and an initial adsorption capacity AC0 from the aggregation kinetics of UV-damaged βL-crystallin (37 °C, 360 nm): target protein/chaperone mol/mol ratio, counted on monomers (mol/mol (target protein/chaperone)) [1] of 2.

B1: α-crystallin (native, from the lens cortex) (complex, bovine (endogenous in steer lens))
chain 1: MDIAIQHPWFKRTLGPFYPSRLFDQFFGEGLFEYDLLPFLSSTISPYYRQSLFRTVLDSGISEVRSDRDKFVIFLDVKHFSPEDLTVKVQEDFVEIHGKHNERQDDHGYISREFHRRYRLPSNVDQSALSCSLSADGMLTFSGPKIPSGVDAGHSERAIPVSREEKPSSAPSS
chain 2: MDIAIHHPWIRRPFFPFHSPSRLFDQFFGEHLLESDLFPASTSLSPFYLRPPSFLRAPSWIDTGLSEMRLEKDRFSVNLDVKHFSPEELKVKVLGDVIEVHGKHEERQDEHGFISREFHRKYRIPADVDPLAITSSLSSDGVLTVNGPRKQASGPERTIPITREEKPAVTAAPKK
notes: αA-crystallin, from steer lens; identified by mass on SDS-PAGE (20 kDa); αB-crystallin, from steer lens; identified by mass on SDS-PAGE (19.8 kDa); Polydisperse oligomer; by SDS-PAGE αA-crystallin 30%, αB-crystallin 60%, truncated α-crystallin 10% (a mixture of αA and αB fragments); also called authentic α-crystallin; native α-crystallin; source: purified from lenses of 6-month-old steers (gel …)
B1: binds [2].

B2: αA-crystallin (natural protein, bovine (endogenous in steer lens), UniProt P02470 1-173, looked up)
chain: MDIAIQHPWFKRTLGPFYPSRLFDQFFGEGLFEYDLLPFLSSTISPYYRQSLFRTVLDSGISEVRSDRDKFVIFLDVKHFSPEDLTVKVQEDFVEIHGKHNERQDDHGYISREFHRRYRLPSNVDQSALSCSLSADGMLTFSGPKIPSGVDAGHSERAIPVSREEKPSSAPSS
notes: αA-crystallin (20 kDa), identified by mass on SDS-PAGE; source: purified from lenses of 6-month-old steers as a part of α-crystallin and HMWA
B2: binds (αB-crystallin).

B3: renatured α-crystallin (complex, bovine (endogenous in steer lens))
chain 1: MDIAIQHPWFKRTLGPFYPSRLFDQFFGEGLFEYDLLPFLSSTISPYYRQSLFRTVLDSGISEVRSDRDKFVIFLDVKHFSPEDLTVKVQEDFVEIHGKHNERQDDHGYISREFHRRYRLPSNVDQSALSCSLSADGMLTFSGPKIPSGVDAGHSERAIPVSREEKPSSAPSS
chain 2: MDIAIHHPWIRRPFFPFHSPSRLFDQFFGEHLLESDLFPASTSLSPFYLRPPSFLRAPSWIDTGLSEMRLEKDRFSVNLDVKHFSPEELKVKVLGDVIEVHGKHEERQDEHGFISREFHRKYRIPADVDPLAITSSLSSDGVLTVNGPRKQASGPERTIPITREEKPAVTAAPKK
notes: αA-crystallin, from steer lens; as in m1; αB-crystallin, from steer lens; Same polypeptides as m1, reassembled from monomers after urea
B3: binds [2].
